Drawing on patent EP2871189A1, “High-affinity monoclonal anti-strep-tag antibody” (INSTITUT PASTEUR, priority 2013, dated 2015), this text covers Kd for 1 molecule.

This experiment has as its target Strep-Tag II peptide WSHPQFEK (SEQ ID NO:9). Kind of experiment: ELISA assay after Friguet et al 1985. For orientation: ELISA stands for enzyme-linked immunosorbent assay.

B1: monoclonal antibody C23.21 (antibody, V domains shown)
VH: EVQLEQSGPELVKPGASVKMSCKASGYTFTNYYMKWVKQSHGKSLEWIGDLNPNNGDTFYNQKFKGKATLTVDKSSNTAYMQLNSLTSEDSAVYYCARTGRYEENAMDYWGQGTSVTVSS
VL: ELVMTQSPASLAVSLGQRATISCRASESVDSYGKSFMHWYQLKPGQPPKLLIYRASNLESGVPARFSGSGSRTDFTLTIDPVEADDAATYYCQQNNEDPWTFGGGTKLEIK
For orientation: Kd means a measure of binding affinity in units of concentration. Molecule B1 yielded a Kd of 140 pM.
